The values below come from PMC11253607, “A conserved inhibitory interdomain interaction regulates DNA-binding activities of hybrid two-component systems in Bacteroides” (mBio, 2024).

Holding throughout (test): Phos-tag gel autophosphorylation, initial rates, Michaelis-Menten fit
Holding throughout (format): biochemical, Bacteroides thetaiotaomicron
Common to all, as to conditions: phospho-donor, 50 mM Tris pH 7.5, 100 mM NaCl, 5 mM BME, 5 mM MgSO4, 5 µM protein

The subject of data set [1] is NP(=O)(O)O. The text has this: Phos-tag gel autophosphorylation, initial rates, Michaelis-Menten fit on BT3334-REC | RECs have higher kcat and lower Km values than RRs
Data set [2] has as its system NP(=O)(O)O. The text has this: Phos-tag gel autophosphorylation, initial rates, Michaelis-Menten fit on BT3334-RR | RECs have higher kcat and lower Km values than RRs
The source holds these as a separate data set.

Data set [3] has as its system NP(=O)(O)O. An excerpt: Phos-tag gel autophosphorylation, initial rates, Michaelis-Menten fit on BT4124-REC | RECs have higher kcat and lower Km values than RRs
This is another data set of the same source.

The subject of data set [4] is NP(=O)(O)O. This is another data set of the same source.
Data set [5] deals with NP(=O)(O)O. An excerpt:
Phos-tag gel autophosphorylation, initial rates, Michaelis-Menten fit on BT4124-RR | RECs have higher kcat and lower Km values than RRs
The source holds these as a separate data set.

Data set [6] has as its system NP(=O)(O)O. An excerpt:
Phos-tag gel autophosphorylation, initial rates, Michaelis-Menten fit on BT4663-REC | RECs have higher kcat and lower Km values than RRs
The source holds these as a separate data set.

In data set [7] the test system is NP(=O)(O)O. An excerpt:
Phos-tag gel autophosphorylation, initial rates, Michaelis-Menten fit on BT4663-RR | RECs have higher kcat and lower Km values than RRs
The source holds these as a separate data set.

With “BT3334-REC (Bacteroides thetaiotaomicron VPI-5482)”, in the data set on NP(=O)(O)O [1], the Km – broadly, the concentration of substrate that gives half-maximal velocity – stood at 4.5 ± 0.8 mM; the kcat – broadly, the number of substrate molecules converted per active site and unit of time at saturation – was 0.02 ± 0.0017 s⁻¹.
In the case of “BT3334-RR (Bacteroides thetaiotaomicron VPI-5482)”, in the data set on NP(=O)(O)O [2], the Km was 7.8 ± 2.4 mM and the kcat amounted to 0.0095 ± 0.00083 s⁻¹.
As to “BT4124-REC (Bacteroides thetaiotaomicron VPI-5482)”, in the data set with NP(=O)(O)O [3], the Km came out at 10 ± 1 mM and the kcat stood at 0.0233 ± 0.0017 s⁻¹.
Consider “BT4124-REC (Bacteroides thetaiotaomicron VPI-5482; C1262A/H1263D)”, for which, in the data set on NP(=O)(O)O [4], the Km is 13 ± 2 mM and the kcat stood at 0.0267 ± 0.0017 s⁻¹.
As to “BT4124-RR (Bacteroides thetaiotaomicron VPI-5482)”, in the data set on NP(=O)(O)O [5], the Michaelis constant (Km) is recorded as 17 ± 2 mM and the kcat turned out to be 0.00833 ± 0.0005 s⁻¹.
In the case of “BT4124-RR (Bacteroides thetaiotaomicron VPI-5482; C1262A/H1263D)”, in the data set with NP(=O)(O)O [4], the Km is on record as 8.5 ± 1.5 mM and the catalytic constant (kcat) amounted to 0.02 ± 0.0017 s⁻¹.
Regarding “BT4124-RR (Bacteroides thetaiotaomicron VPI-5482; C1262A/H1263G)”, in the data set with NP(=O)(O)O [4], the Michaelis constant (Km) was 13 ± 3 mM and the kcat is 0.0183 ± 0.0017 s⁻¹.
Turning to “BT4663-REC (Bacteroides thetaiotaomicron VPI-5482)”, in the data set with NP(=O)(O)O [6], the Km was found to be 14 ± 4 mM and the kcat was 0.0135 ± 0.0017 s⁻¹.
For “BT4663-RR (Bacteroides thetaiotaomicron VPI-5482)”, in the data set with NP(=O)(O)O [7], the Km stood at 33 ± 6 mM and the kcat came to 0.0035 ± 0.00033 s⁻¹.
